{
  "source": "patent US20080286815A1",
  "about": "“SPECTROPHOTOMETRIC ASSAY FOR HUMAN HISTONE DEACETYLASE 8” (THE UNIVERSITY OF AKRON, priority 2007, published 2008)",
  "proteins": {"B1": {"name": "human HDAC8 (Homo sapiens) (protein)", "chain": "MEEPEEPADSGQSLVPVYIYSPEYVSMCDSLAKIPKRASMVHSLIEAYALHKQMRIVKPKVASMEEMATFHTDAYLQHLQKVSQEGDDDHPDSIEYGLGYDCPATEGIFDYAAAIGGATITAAQCLIDGMCKVAINWSGGWHHAKKDEASGFCYLNDAVLGILRLRRKFERILYVDLDLHHGDGVEDAFSFTSKVMTVSLHKFSPGFFPGTGDVSDVGLGKGRYYSVNVPIQDGIQDEKYYQICESVLKEVYQAFNPKAVVLQLGADTIAGDPMCSFNMTPVGIGKCLKYILQWQLATLILGGGGYNLANTARCWTYLTGVILGKTLSSEIPDHEFFTAYGPDYVLEITPSCRPDRNEPHRIQQILNYIKGNLKHVV"}},
  "substrate": "CSCC[C@H](NC(=O)[C@H](CC(C)C)NC(=O)[C@H](CCCC/N=C(/C)S)NC(=O)[C@H](CCCCN)NC(=O)[C@H](Cc1c[nH]cn1)NC(=O)[C@H](CCCN=C(N)N)NC(=O)[C@H](CO)NC(=O)[C@@H](NC(=O)[C@H](CO)NC(=O)[C@H](CCC(N)=O)NC(=O)CNC(=O)[C@H](CCCCN)NC(=O)[C@@H](N)CCCCN)[C@@H](C)O)C(=O)N[C@@H](Cc1ccccc1)C(=O)N[C@@H](CCCCN)C(=O)N[C@H](C(=O)N[C@@H](CCC(=O)O)C(=O)NCC(=O)O)[C@@H](C)O",
  "test": "DTNB-based enzymatic assay with purified HDAC8",
  "format": "biochemical, human",
  "conditions": "other: peptide as in vitro HDAC8 substrate, 375 nM HDAC8, room temperature, 1 hour, pH 6.8",
  "method": "DTNB-based enzymatic assay. The DTNB data shown in FIG. 4 was generated using the following procedure. A second portion (300 µL) of the above HDAC8 assay mixture was quenched with 600 µL of the stop solution: 3.2 M guanidinium chloride in 100 mM of sodium phosphate (pH 6.8), and was analyzed by the DTNB-based assay procedure according to the invention, i.e. 60 min after the quench and DTNB (100 µL) addition, A412 was recorded for each sample derived at different time points of the same assay reaction. Again, the same assay protocol was used when the HeLa nuclear extracts were used instead of human HDAC8. To measure the kinetic parameters for the thioacetyl-lysine p53 peptide as an in vitro HDAC8 substrate, all the assay reactions contained 375 nM of HDAC8, a range of substrate concentrations varied around the Km value, and were allowed to proceed at room temperature for 1 hour before quenching. Reaction velocities were determined under initial condition (substrate turnover <10%). This experiment was performed twice, and each duplicate measurement agreed within 20%. By using a non-linear least squares approach with the computer program Kaleidagraph (Reading, Pa., USA), kinetic parameters (kcat and Km) were derived from the Michaelis-Menten plot based on the experimental data.\nAssay with purified HDAC8. […]",
  "data": [
    {"protein": "B1", "values": [
      {"measurement": "Km", "value": "33.7 ± 7.2", "unit": "µM"},
      {"measurement": "kcat", "value": "0.00433 ± 0.00033", "unit": "s⁻¹"}
    ]}
  ]
}
